Sequences and labels used below:
T1: Death associated protein 5 (DAP5) (aa 16-157) (UniProt P78344 16-157)
T1 construct: range 16-157
T1 sequence (looked up): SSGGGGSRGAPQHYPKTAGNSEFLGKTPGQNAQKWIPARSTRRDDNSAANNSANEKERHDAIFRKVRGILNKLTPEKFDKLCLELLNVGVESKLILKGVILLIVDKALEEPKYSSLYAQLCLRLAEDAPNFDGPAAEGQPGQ

T2: Protein kinase C and casein kinase substrate (PACSIN2) (aa 174-367) (UniProt Q9UNF0 174-367)
T2 construct: range 174-367
T2 sequence (looked up): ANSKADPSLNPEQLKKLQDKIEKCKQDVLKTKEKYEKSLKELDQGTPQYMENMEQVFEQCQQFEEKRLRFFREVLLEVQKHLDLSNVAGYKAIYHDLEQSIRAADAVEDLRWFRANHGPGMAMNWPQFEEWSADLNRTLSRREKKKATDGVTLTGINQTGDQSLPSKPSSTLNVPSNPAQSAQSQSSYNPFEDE

T3: Golgi autoantigen (Golgin-84) (aa 198-501) (UniProt Q8TBA6 198-501)
T3 construct: range 198-501
T3 sequence (looked up): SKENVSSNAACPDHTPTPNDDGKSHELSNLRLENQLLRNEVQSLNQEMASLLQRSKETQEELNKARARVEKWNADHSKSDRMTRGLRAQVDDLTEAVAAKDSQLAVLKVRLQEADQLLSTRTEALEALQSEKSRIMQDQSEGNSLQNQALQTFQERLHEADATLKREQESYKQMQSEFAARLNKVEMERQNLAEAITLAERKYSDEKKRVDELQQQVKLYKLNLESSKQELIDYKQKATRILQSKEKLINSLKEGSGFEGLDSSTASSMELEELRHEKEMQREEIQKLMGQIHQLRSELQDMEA

T4: hypothetical protein FLJ10540 (aa 1-140) (UniProt Q53EZ4 1-140)
T4 construct: range 1-140
T4 sequence (looked up): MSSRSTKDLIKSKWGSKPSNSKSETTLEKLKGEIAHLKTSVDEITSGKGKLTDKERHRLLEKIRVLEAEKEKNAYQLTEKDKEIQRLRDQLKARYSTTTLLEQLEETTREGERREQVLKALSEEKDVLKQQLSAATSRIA

T5: Cytoplasmic linker 2 (CYLN2) (aa 607-947) (UniProt Q9UDT6 607-947)
T5 construct: also called CLIP-115
T5 sequence (looked up): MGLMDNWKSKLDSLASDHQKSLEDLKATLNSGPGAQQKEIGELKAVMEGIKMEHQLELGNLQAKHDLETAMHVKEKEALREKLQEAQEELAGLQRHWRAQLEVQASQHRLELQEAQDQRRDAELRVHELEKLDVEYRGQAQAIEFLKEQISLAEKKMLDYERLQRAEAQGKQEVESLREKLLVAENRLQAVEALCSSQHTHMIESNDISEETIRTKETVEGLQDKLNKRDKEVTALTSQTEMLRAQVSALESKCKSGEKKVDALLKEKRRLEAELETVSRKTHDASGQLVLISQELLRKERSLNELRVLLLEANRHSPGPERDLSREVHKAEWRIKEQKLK

T6: VPS28 protein (aa 9-211) (human, UniProt Q9UK41 9-211)
T6 construct: range 9-211
T6 sequence (looked up): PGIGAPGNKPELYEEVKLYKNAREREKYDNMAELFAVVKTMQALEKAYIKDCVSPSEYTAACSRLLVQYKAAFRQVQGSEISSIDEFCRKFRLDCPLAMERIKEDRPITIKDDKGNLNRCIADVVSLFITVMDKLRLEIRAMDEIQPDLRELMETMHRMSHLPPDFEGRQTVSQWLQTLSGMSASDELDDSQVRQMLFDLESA

B1: Tsg101 (aa 265-391) (other, human, UniProt Q99816 265-390, looked up)
chain: KGHQKLEEMVTRLDQEVAEVDKNIELLKKKDEELSSALEKMENQSENNDIDEVIIPTAPLYKQILNLYAEENAIEDTIFYLGEALRRGVIDLDVFLKHVRLLSRKQFQLRALMQKARKTAGLSDLY
notes: range 265-391
B2: Tsg101 (aa 147-391) (other, human, UniProt Q99816 147-390, looked up)
chain: SASYPPYQATGPPNTSYMPGMPGGISPYPSGYPPNPSGYPGCPYPPGGPYPATTSSQYPSQPPVTTVGPSRDGTISEDTIRASLISAVSDKLRWRMKEEMDRAQAELNALKRTEEDLKKGHQKLEEMVTRLDQEVAEVDKNIELLKKKDEELSSALEKMENQSENNDIDEVIIPTAPLYKQILNLYAEENAIEDTIFYLGEALRRGVIDLDVFLKHVRLLSRKQFQLRALMQKARKTAGLSDLY
notes: range 147-391
B3: VPS28 protein (aa 10-221) (other, human, UniProt Q9UK41 10-221, looked up)
chain: GIGAPGNKPELYEEVKLYKNAREREKYDNMAELFAVVKTMQALEKAYIKDCVSPSEYTAACSRLLVQYKAAFRQVQGSEISSIDEFCRKFRLDCPLAMERIKEDRPITIKDDKGNLNRCIADVVSLFITVMDKLRLEIRAMDEIQPDLRELMETMHRMSHLPPDFEGRQTVSQWLQTLSGMSASDELDDSQVRQMLFDLESAYNAFNRFLHA
B4: Tsg101 (aa 317-391) (other, human, UniProt Q99816 317-390, looked up)
chain: VIIPTAPLYKQILNLYAEENAIEDTIFYLGEALRRGVIDLDVFLKHVRLLSRKQFQLRALMQKARKTAGLSDLY
notes: range 317-391
B5: Tsg101 (aa 140-270) (other, human, UniProt Q99816 140-270, looked up)
chain: PVFSRPISASYPPYQATGPPNTSYMPGMPGGISPYPSGYPPNPSGYPGCPYPPGGPYPATTSSQYPSQPPVTTVGPSRDGTISEDTIRASLISAVSDKLRWRMKEEMDRAQAELNALKRTEEDLKKGHQKL
notes: range 140-270
B6: Tsg101 (aa 231-391) (other, human, UniProt Q99816 231-390, looked up)
chain: ISAVSDKLRWRMKEEMDRAQAELNALKRTEEDLKKGHQKLEEMVTRLDQEVAEVDKNIELLKKKDEELSSALEKMENQSENNDIDEVIIPTAPLYKQILNLYAEENAIEDTIFYLGEALRRGVIDLDVFLKHVRLLSRKQFQLRALMQKARKTAGLSDLY
B7: VPS28 protein (aa 27-221) (other, human, UniProt Q9UK41 27-221, looked up)
chain: YKNAREREKYDNMAELFAVVKTMQALEKAYIKDCVSPSEYTAACSRLLVQYKAAFRQVQGSEISSIDEFCRKFRLDCPLAMERIKEDRPITIKDDKGNLNRCIADVVSLFITVMDKLRLEIRAMDEIQPDLRELMETMHRMSHLPPDFEGRQTVSQWLQTLSGMSASDELDDSQVRQMLFDLESAYNAFNRFLHA

Common to all, as to experiment: yeast two-hybrid
Assay [1] concerns the target T1, Death associated protein 5 (DAP5) (aa …).
The target of assay [2] is T7, Chromosome-associated polypeptide HCAP (aa 119-353) (human, UniProt Q9UQE7 119-353).
T7 construct: range 119-353

Assay [3] deals with T2, Protein kinase C and casein kinase ….
Assay [4] deals with B3.
In assay [5] the target is T3, Golgi autoantigen (Golgin-84) (aa …).
The assay “Tsg101 (aa 147-391)” concerns the target B2.
Assay [6] deals with T4, hypothetical protein FLJ10540 (aa 1-140).
Assay [7] addresses T5, Cytoplasmic linker 2 (CYLN2) (aa …).
The next assay addresses T6, VPS28 protein (aa 9-211).

Data on seven molecules can be found in patent publication US7202329 (MYRIAD GENETICS, dated 2007).

T7 sequence (Q9UQE7 119-353 limits assumed): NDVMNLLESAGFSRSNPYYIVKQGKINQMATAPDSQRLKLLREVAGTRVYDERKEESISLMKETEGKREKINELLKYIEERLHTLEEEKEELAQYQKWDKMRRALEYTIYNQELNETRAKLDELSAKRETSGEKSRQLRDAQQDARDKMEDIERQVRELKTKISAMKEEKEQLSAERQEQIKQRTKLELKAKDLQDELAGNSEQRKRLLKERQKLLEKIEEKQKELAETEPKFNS

As for B1, the binding result in assay [1], in [2], in assay [3] and in assay [4] was “binds” throughout. On to B2, for which the binding result in assay [5] is “binds”.

Turning to B3, in the assay with Tsg101 (aa 147-391), the binding result is “binds”. On to B4, for which the binding result in [4] is “binds”. B5: in assay [6], the binding result is reported as “binds”.

For B6, the binding result (in [7]; in assay [5]; in assay [4]; with VPS28 protein (aa 9-211)) was “binds” in each case. As to B7, the binding result with Tsg101 (aa 147-391) is “binds”.
